# According to the Human Domainome abundance scans (Beltran et al. 2025):
# ± gives the uncertainty stated by the source.
# B1: Gamma-crystallin S, residues 96 to 176; numbered along this chain, P22914 (parent)
# chain: IQIFEKGDFSGQMYETTEDCPSIMEQFHMREIHSCKVLEGVWIFYELPNYRGRQYLLDKKEYRKPIDWGAASPAVQSFRRI
# Variants of: B1
# Test: abundance fitness (aPCA) (normalised: wild type 0, dead -1); higher = more abundant; growth selection in yeast, the domain comes from the species named
# Conditions: Homo sapiens
row,Variant,abundance fitness
1,IQIFEKGDFSGQMYETTEDCPSQMEQFHMREIHSCKVLEGVWIFYELPNYRGRQYLLDKKEYRKPIDWGAASPAVQSFRRI,-0.398 ± 0.18
2,IQIFEKGDFSGQMYETTEDCPSVMEQFHMREIHSCKVLEGVWIFYELPNYRGRQYLLDKKEYRKPIDWGAASPAVQSFRRI,0.004 ± 0.048
3,IQIFEKGDFSGQMYETTEDCPSFMEQFHMREIHSCKVLEGVWIFYELPNYRGRQYLLDKKEYRKPIDWGAASPAVQSFRRI,0.001 ± 0.072
4,IQIFEKGDFSGQMYETTEDCPSMMEQFHMREIHSCKVLEGVWIFYELPNYRGRQYLLDKKEYRKPIDWGAASPAVQSFRRI,-0.041 ± 0.17
5,IQIFEKGDFSGQMYETTEDCPSGMEQFHMREIHSCKVLEGVWIFYELPNYRGRQYLLDKKEYRKPIDWGAASPAVQSFRRI,-0.142 ± 0.045
6,IQIFEKGDFSGQMYETTEDCPSEMEQFHMREIHSCKVLEGVWIFYELPNYRGRQYLLDKKEYRKPIDWGAASPAVQSFRRI,-0.945 ± 0.24
7,IQIFEKGDFSGQMYETTEDCPSLMEQFHMREIHSCKVLEGVWIFYELPNYRGRQYLLDKKEYRKPIDWGAASPAVQSFRRI,-0.152 ± 0.089
8,IQIFEKGDFSGQMYETTEDCPSRMEQFHMREIHSCKVLEGVWIFYELPNYRGRQYLLDKKEYRKPIDWGAASPAVQSFRRI,-0.28 ± 0.077
9,IQIFEKGDFSGQMYETTEDCPSAMEQFHMREIHSCKVLEGVWIFYELPNYRGRQYLLDKKEYRKPIDWGAASPAVQSFRRI,0 ± 0.055
10,IQIFEKGDFSGQMYETTEDCPSHMEQFHMREIHSCKVLEGVWIFYELPNYRGRQYLLDKKEYRKPIDWGAASPAVQSFRRI,-0.201 ± 0.16
11,IQIFEKGDFSGQMYETTEDCPSSMEQFHMREIHSCKVLEGVWIFYELPNYRGRQYLLDKKEYRKPIDWGAASPAVQSFRRI,-0.038 ± 0.085
12,IQIFEKGDFSGQMYETTEDCPSTMEQFHMREIHSCKVLEGVWIFYELPNYRGRQYLLDKKEYRKPIDWGAASPAVQSFRRI,-0.033 ± 0.16
13,IQIFEKGDFSGQMYETTEDCPSWMEQFHMREIHSCKVLEGVWIFYELPNYRGRQYLLDKKEYRKPIDWGAASPAVQSFRRI,0.014 ± 0.11
14,IQIFEKGDFSGQMYETTEDCPSCMEQFHMREIHSCKVLEGVWIFYELPNYRGRQYLLDKKEYRKPIDWGAASPAVQSFRRI,-0.031 ± 0.11
15,IQIFEKGDFSGQMYETTEDCPSYMEQFHMREIHSCKVLEGVWIFYELPNYRGRQYLLDKKEYRKPIDWGAASPAVQSFRRI,0.024 ± 0.088
16,IQIFEKGDFSGQMYETTEDCPSPMEQFHMREIHSCKVLEGVWIFYELPNYRGRQYLLDKKEYRKPIDWGAASPAVQSFRRI,0.02 ± 0.093
17,IQIFEKGDFSGQMYETTEDCPSNMEQFHMREIHSCKVLEGVWIFYELPNYRGRQYLLDKKEYRKPIDWGAASPAVQSFRRI,-0.041 ± 0.08
18,IQIFEKGDFSGQMYETTEDCPSKMEQFHMREIHSCKVLEGVWIFYELPNYRGRQYLLDKKEYRKPIDWGAASPAVQSFRRI,-0.588 ± 0.083
19,IQIFEKGDFSGQMYETTEDCPWIMEQFHMREIHSCKVLEGVWIFYELPNYRGRQYLLDKKEYRKPIDWGAASPAVQSFRRI,0.082 ± 0.1
20,IQIFEKGDFSGQMYETTEDCPVIMEQFHMREIHSCKVLEGVWIFYELPNYRGRQYLLDKKEYRKPIDWGAASPAVQSFRRI,0.017 ± 0.051
21,IQIFEKGDFSGQMYETTEDCPYIMEQFHMREIHSCKVLEGVWIFYELPNYRGRQYLLDKKEYRKPIDWGAASPAVQSFRRI,0.142 ± 0.3
22,IQIFEKGDFSGQMYETTEDCPSIMEWFHMREIHSCKVLEGVWIFYELPNYRGRQYLLDKKEYRKPIDWGAASPAVQSFRRI,0 ± 0.061
23,IQIFEKGDFSGQMYETTEDCPSIMETFHMREIHSCKVLEGVWIFYELPNYRGRQYLLDKKEYRKPIDWGAASPAVQSFRRI,-0.047 ± 0.088

row,Variant,abundance fitness
1,IQIFEKGDFSGQMYETTEDCPSIMEPFHMREIHSCKVLEGVWIFYELPNYRGRQYLLDKKEYRKPIDWGAASPAVQSFRRI,-0.021 ± 0.092
2,IQIFEKGDFSGQMYETTEDCPSIMEMFHMREIHSCKVLEGVWIFYELPNYRGRQYLLDKKEYRKPIDWGAASPAVQSFRRI,-0.04 ± 0.087
3,IQIFEKGDFSGQMYETTEDCPSIMEGFHMREIHSCKVLEGVWIFYELPNYRGRQYLLDKKEYRKPIDWGAASPAVQSFRRI,0.044 ± 0.051
4,IQIFEKGDFSGQMYETTEDCPSIMEAFHMREIHSCKVLEGVWIFYELPNYRGRQYLLDKKEYRKPIDWGAASPAVQSFRRI,-0.018 ± 0.063
5,IQIFEKGDFSGQMYETTEDCPSIMEEFHMREIHSCKVLEGVWIFYELPNYRGRQYLLDKKEYRKPIDWGAASPAVQSFRRI,0.079 ± 0.089
6,IQIFEKGDFSGQMYETTEDCPSIMEDFHMREIHSCKVLEGVWIFYELPNYRGRQYLLDKKEYRKPIDWGAASPAVQSFRRI,0.073 ± 0.11
7,IQIFEKGDFSGQMYETTEDCPSIMEIFHMREIHSCKVLEGVWIFYELPNYRGRQYLLDKKEYRKPIDWGAASPAVQSFRRI,-0.065 ± 0.15
8,IQIFEKGDFSGQMYETTEDCPSIMEYFHMREIHSCKVLEGVWIFYELPNYRGRQYLLDKKEYRKPIDWGAASPAVQSFRRI,0.082 ± 0.11
9,IQIFEKGDFSGQMYETTEDCPSIMESFHMREIHSCKVLEGVWIFYELPNYRGRQYLLDKKEYRKPIDWGAASPAVQSFRRI,-0.035 ± 0.052
10,IQIFEKGDFSGQMYETTEDCPSIMEVFHMREIHSCKVLEGVWIFYELPNYRGRQYLLDKKEYRKPIDWGAASPAVQSFRRI,0.009 ± 0.059
11,IQIFEKGDFSGQMYETTEDCPSIMEKFHMREIHSCKVLEGVWIFYELPNYRGRQYLLDKKEYRKPIDWGAASPAVQSFRRI,-0.079 ± 0.12
12,IQIFEKGDFSGQMYETTEDCPSIMERFHMREIHSCKVLEGVWIFYELPNYRGRQYLLDKKEYRKPIDWGAASPAVQSFRRI,0.009 ± 0.041
13,IQIFEKGDFSGQMYETTEDCPSIMEFFHMREIHSCKVLEGVWIFYELPNYRGRQYLLDKKEYRKPIDWGAASPAVQSFRRI,-0.033 ± 0.071
14,IQIFEKGDFSGQMYETTEDCPSIMECFHMREIHSCKVLEGVWIFYELPNYRGRQYLLDKKEYRKPIDWGAASPAVQSFRRI,-0.123 ± 0.097
15,IQIFEKGDFSGQMYETTEDCPSICEQFHMREIHSCKVLEGVWIFYELPNYRGRQYLLDKKEYRKPIDWGAASPAVQSFRRI,-0.016 ± 0.16
16,IQIFEKGDFSGQMYETTEDCPSISEQFHMREIHSCKVLEGVWIFYELPNYRGRQYLLDKKEYRKPIDWGAASPAVQSFRRI,-0.088 ± 0.074
17,IQIFEKGDFSGQMYETTEDCPSIQEQFHMREIHSCKVLEGVWIFYELPNYRGRQYLLDKKEYRKPIDWGAASPAVQSFRRI,-0.097 ± 0.098
18,IQIFEKGDFSGQMYETTEDCPSIIEQFHMREIHSCKVLEGVWIFYELPNYRGRQYLLDKKEYRKPIDWGAASPAVQSFRRI,-0.017 ± 0.11
19,IQIFEKGDFSGQMYETTEDCPSIYEQFHMREIHSCKVLEGVWIFYELPNYRGRQYLLDKKEYRKPIDWGAASPAVQSFRRI,-0.095 ± 0.14
20,IQIFEKGDFSGQMYETTEDCPSILEQFHMREIHSCKVLEGVWIFYELPNYRGRQYLLDKKEYRKPIDWGAASPAVQSFRRI,0.002 ± 0.06
21,IQIFEKGDFSGQMYETTEDCPSIPEQFHMREIHSCKVLEGVWIFYELPNYRGRQYLLDKKEYRKPIDWGAASPAVQSFRRI,-0.099 ± 0.069
22,IQIFEKGDFSGQMYETTEDCPSIKEQFHMREIHSCKVLEGVWIFYELPNYRGRQYLLDKKEYRKPIDWGAASPAVQSFRRI,0.335 ± 0.12
23,IQIFEKGDFSGQMYETTEDCPSIWEQFHMREIHSCKVLEGVWIFYELPNYRGRQYLLDKKEYRKPIDWGAASPAVQSFRRI,0.115 ± 0.06

row,Variant,abundance fitness
1,IQIFEKGDFSGQMYETTEDCPSIREQFHMREIHSCKVLEGVWIFYELPNYRGRQYLLDKKEYRKPIDWGAASPAVQSFRRI,-0.005 ± 0.056
2,IQIFEKGDFSGQMYETTEDCPSIDEQFHMREIHSCKVLEGVWIFYELPNYRGRQYLLDKKEYRKPIDWGAASPAVQSFRRI,-0.11 ± 0.16
3,IQIFEKGDFSGQMYETTEDCPSIHEQFHMREIHSCKVLEGVWIFYELPNYRGRQYLLDKKEYRKPIDWGAASPAVQSFRRI,-0.099 ± 0.17
4,IQIFEKGDFSGQMYETTEDCPSITEQFHMREIHSCKVLEGVWIFYELPNYRGRQYLLDKKEYRKPIDWGAASPAVQSFRRI,0.007 ± 0.06
5,IQIFEKGDFSGQMYETTEDCPSIAEQFHMREIHSCKVLEGVWIFYELPNYRGRQYLLDKKEYRKPIDWGAASPAVQSFRRI,-0.054 ± 0.059
6,IQIFEKGDFSGQMYETTEDCPSIEEQFHMREIHSCKVLEGVWIFYELPNYRGRQYLLDKKEYRKPIDWGAASPAVQSFRRI,-0.052 ± 0.078
7,IQIFEKGDFSGQMYETTEDCPSIMEQAHMREIHSCKVLEGVWIFYELPNYRGRQYLLDKKEYRKPIDWGAASPAVQSFRRI,0.033 ± 0.047
8,IQIFEKGDFSGQMYETTEDCPSIMEQPHMREIHSCKVLEGVWIFYELPNYRGRQYLLDKKEYRKPIDWGAASPAVQSFRRI,-0.001 ± 0.081
9,IQIFEKGDFSGQMYETTEDCPSIMEQVHMREIHSCKVLEGVWIFYELPNYRGRQYLLDKKEYRKPIDWGAASPAVQSFRRI,0.014 ± 0.053
10,IQIFEKGDFSGQMYETTEDCPSIMEQQHMREIHSCKVLEGVWIFYELPNYRGRQYLLDKKEYRKPIDWGAASPAVQSFRRI,0.021 ± 0.067
11,IQIFEKGDFSGQMYETTEDCPSIMEQGHMREIHSCKVLEGVWIFYELPNYRGRQYLLDKKEYRKPIDWGAASPAVQSFRRI,0.017 ± 0.04
12,IQIFEKGDFSGQMYETTEDCPSIMEQRHMREIHSCKVLEGVWIFYELPNYRGRQYLLDKKEYRKPIDWGAASPAVQSFRRI,0.02 ± 0.042
13,IQIFEKGDFSGQMYETTEDCPSIMEQLHMREIHSCKVLEGVWIFYELPNYRGRQYLLDKKEYRKPIDWGAASPAVQSFRRI,0.015 ± 0.049
14,IQIFEKGDFSGQMYETTEDCPSIMEQKHMREIHSCKVLEGVWIFYELPNYRGRQYLLDKKEYRKPIDWGAASPAVQSFRRI,-0.018 ± 0.15
15,IQIFEKGDFSGQMYETTEDCPSIMEQNHMREIHSCKVLEGVWIFYELPNYRGRQYLLDKKEYRKPIDWGAASPAVQSFRRI,-0.141 ± 0.14
16,IQIFEKGDFSGQMYETTEDCPSIMEQIHMREIHSCKVLEGVWIFYELPNYRGRQYLLDKKEYRKPIDWGAASPAVQSFRRI,0.104 ± 0.094
17,IQIFEKGDFSGQMYETTEDCPSIMEQMHMREIHSCKVLEGVWIFYELPNYRGRQYLLDKKEYRKPIDWGAASPAVQSFRRI,0.014 ± 0.068
18,IQIFEKGDFSGQMYETTEDCPSIMEQCHMREIHSCKVLEGVWIFYELPNYRGRQYLLDKKEYRKPIDWGAASPAVQSFRRI,-0.094 ± 0.085
19,IQIFEKGDFSGQMYETTEDCPSIMEQHHMREIHSCKVLEGVWIFYELPNYRGRQYLLDKKEYRKPIDWGAASPAVQSFRRI,0.101 ± 0.24
20,IQIFEKGDFSGQMYETTEDCPSIMEQDHMREIHSCKVLEGVWIFYELPNYRGRQYLLDKKEYRKPIDWGAASPAVQSFRRI,-0.156 ± 0.13
21,IQIFEKGDFSGQMYETTEDCPSIMEQSHMREIHSCKVLEGVWIFYELPNYRGRQYLLDKKEYRKPIDWGAASPAVQSFRRI,0.006 ± 0.047
22,IQIFEKGDFSGQMYETTEDCPSIMWQFHMREIHSCKVLEGVWIFYELPNYRGRQYLLDKKEYRKPIDWGAASPAVQSFRRI,-0.434 ± 0.35
